The source of these data is patent publication US10272050B2, “Nanoparticles and methods of use” (The Brigham and Women's Hospital, Inc., priority 2014, dated 2019).

A short description of series [1]: Protein encapsulation efficiency and loading content (solvent-free loading, ELISA of unloaded protein). The class given is physicochemical. The following applies: loaded into TNPs at 4° C. without organic solvents. As for the experimental part:
The protein encapsulation efficiency and the loading content were determined by separation of unloaded proteins from TNPs using Amicon Ultra centrifugal filters (MWCO 100 kDa). Unloaded proteins were measured using a protein ELISA kit and Synergy HT multi-mode microplate reader (BioTek Instruments Inc., Winooski, Vt., USA) at […] absorbance.
(ELISA stands for enzyme-linked immunosorbent assay.)

Series [2] is described as follows: In vitro release of proteins from TNPs in PBS. It counts as physicochemical. The following applies: 100 rpm, 37° C. How it is done: The protein-loaded nanoparticles were dispersed in 1 mL of phosphate-buffered saline solution (PBS) and subsequently incubated in a shaking incubator at 100 rpm and 37° C. At each time point, the protein released from nanoparticles was isolated using Amicon Ultra-0.5 centrifugal filters (MWCO 50 kDa) at 5,000 rpm for 2 min at 20° C. Then the protein-loaded nanoparticles were resuspended in PBS and incubated in the same manner until the last defined time point. The amount of released protein at each time point was measured at 450 nm using an ELISA kit. The measurements were done in triplicate.

Series [3] deals with intracellular ROS in LPS-stimulated RAW 264.7 macrophage cells. Kind of series: Inhibition of intracellular ROS in LPS-stimulated macrophages (DCFH2-DA). The class given is cell-based. As for the experimental part: To analyze the inhibitory effect of IL-10 on intracellular reactive oxygen species (ROS) generated from lipopolysaccharide (LPS)-stimulated macrophage cells, RAW 264.7 macrophage cells were seeded on a 24-well tissue culture plate at a density of 2×10^4 cells per well and then allowed to grow for 12 h. The cells were pre-treated with IL-10 at various concentrations (1 to 100 ng/mL) for 2 h and 24 h at 37° C. Then the medium was replaced with LPS solution (100 ng/mL), and the cells were further incubated for 4 h and 24 h at 37° C. The cells were then washed with PBS and incubated with 10 μM ROS detection reagent (DCFH2-DA) for 90 min at 37° C. Fluorescence intensity was measured using a Synergy HT multi-mode microplate reader with ex/em 485/528 nm filter (BioTek Instruments Inc).
In order to determine the bioactive integrity of IL-10 released from or loaded into TNPs, cells seeded on a 24-well tissue culture plate (2×10^4 cells/well) were pre-treated with native IL-10, IL-10 released from TNPs (obtained at 48 h post-release), or IL-10-loaded TNPs at 50 ng/mL concentration for 24 h at 37° C. Next, the medium was replaced with LPS solution (100 ng/mL), and the cells were stimulated with LPS for 24 h at 37° C. After washing with PBS, intracellular ROS was measured using the detection method mentioned above. […]

The subject of series [4] is DNFB-induced allergic contact dermatitis. Kind of series: DNFB-induced allergic contact dermatitis (ACD) model. The class given is in vivo, C57BL/6 mice. Particulars: 100 μg IL-10/kg i.v. 2 h before DNFB, ear thickness at 36 h. How it is done: C57BL/6 mice were administered i.v. saline, TNPs, IL-10, or IL-10-loaded TNPs (100 μg IL-10/kg). At 2 h post-injection, a 0.3% v/v solution of DNFB (2,4-dinitro-fluorobenzene) in acetone was applied the mice to the dorsal and ventral aspects of ear skin. Ear thickness was measured using an engineer's micrometer (Mitutoyo) at 36 h. The change of ear thickness is calculated as the difference between the treated ear and the contralateral ear treated with acetone alone.
Ears were fixed in a 10% formalin solution, embedded in paraffin, and submitted for histological analysis by haematoxilin and eosin staining to the Harvard Rodent Histopathology Core.
For ear-skin digestion, the dorsal and ventral aspects of the ear were mechanically separated before mincing and placing into a digestion mix consisting of DMEM (Gibco) supplemented with HEPES (Invitrogen), 2% FCS, 200 μg/mL Liberase TM (Roche), 10 μg/mL DNase I (Roche), and 5 mg/mL Collagenase D (Roche). Ears were digested for 80 minutes at 37° C. in gentleMACS tubes (Miltenyi) with gentle agitation in freshly prepared digestion mix. After enzymatic digestion, the mixture was processed using a gentleMACS homogenizer (Miltenyi) in order to obtain a cell suspension, which was then filtered through a 70 μm cell strainer (BD). Cells were then resuspended in FACS buffer for analysis. […]

The next series deals with sIL-1Ra gene expression. Kind of series: qPCR of sIL-1Ra in LPS-stimulated macrophage cells. It counts as cell-based. Particulars: LPS 500 ng/mL 4 h, then IL-10 20 ng/mL 2 h. How it is done: (§1) Macrophage cells were seeded on a 6-well tissue culture plate (5×10^5 cells/well) and maintained for 12 h. The cells were treated with LPS (500 ng/mL) for 4 h, the medium was replaced with IL-10 solution (native IL-10 or released IL-10 at 20 ng/mL), and the cells were incubated for 2 h at 37° C. Next, the cells were washed with PBS and harvested by scraping, followed by centrifugation at 2,000 rpm for 5 min at 4° C. The isolated cell pellets were used to prepare the total RNA using the RNeasy® Mini Kit (QIAGEN, Valencia, Calif., USA) according to the manufacturer's protocol. For the preparation of cDNA, the extracted RNA solution (1 μg/5 μL) was then mixed with 0.5 μL of Oligo (dT) 15 primer (Promega, Madison, Wis., USA) and then reacted at 70° C. for 5 min using the Bio-Rad iCycler PCR Thermal Cycler (Bio-Rad Laboratories, Inc., Hercules, Calif., USA). The mixture was subsequently placed on ice for 5 min and mixed with various components to a final volume of 20 μL: nuclease-free water (5.6 μL), 10 mM dNTP mixture (Promega, 1 μL), 25 mM MgCl2 (Promega, 2.4 μL), ImProm-II™ reverse transcriptase (Promega, 1 μL), ImProm-II™ 5× reaction buffer (Promega, 4 μL), and RNasin® Plus RNase inhibitor (Promega, 0.5 μL). […] The relative gene expression levels were calculated using the ΔΔCt method and normalized to the expression of the reference gene (β-Actin). […]
On the technique in general: Quantitative PCR measures a nucleic acid by following its amplification.

Series [5] has as its system STAT3 and phosphorylated STAT3 (P-STAT3 at Tyr705). The experiment in a line: Western blot of STAT3 and P-STAT3 in unstimulated macrophage cells. The following applies: 20 ng/mL, 24 h; for Total levels of STAT3: β-Actin reference. It counts as cell-based. How it is done:
To determine the bioactivity of IL-10 in unstimulated cells, macrophage cells seeded on a 6-well tissue culture plate (5×10^5 cells/well) were treated with IL-10 (native IL-10 or released IL-10 at 20 ng/mL) and incubated for 24 h at 37° C. Then the cells were washed with ice-cold PBS three times and harvested by scraping into Eppendorf tubes, followed by centrifugation at 12,000 rpm for 5 min at 4° C. For protein extraction, the cells were lysed in 200 μL of protein extraction reagent (Fisher Scientific, Pittsburgh, Pa., USA) supplemented with protease inhibitor cocktail and phosphatase inhibitor cocktail (Sigma-Aldrich), and then centrifuged at 12,000 rpm for 10 min at 4° C. to remove the nuclei. Next, protein concentration was measured using a Coomassie Plus-Bradford™ assay with bovine serum albumin as the protein standard. The cell lysates (with 30 μg of protein) were mixed with 4× Laemmli Sample Buffer (Bio-Rad), and the mixture was boiled for 7 min at 95° C. […] Then the membranes were blocked with Tris-Buffered Saline-0.1% Tween 20 (TBST) solution containing 5% BSA for 2 h at 4° C. on a shaker. The primary antibodies (1:1000 dilutions) in TBST with 3% BSA were incubated with the membranes overnight at 4° C. on a shaker. After that, the membranes were washed with TBST solution four times (each 10 min) and then incubated with secondary antibody (1:10,000 dilutions) in TBST with 3% BSA for 1 h at room temperature on a shaker. Finally, the membranes were washed with TBST solution five times and visualized using Amersham ECL prime western blotting detection reagent (GE Healthcare Life Sciences, Pittsburgh, Pa., USA). The primary and secondary antibodies used in this study were from Cell Signaling Technology (Danvers, Mass., USA) as follows: β-Actin (8H10D10) Mouse mAb, Stat3 (124H6) Mouse mAb, and Phospho-Stat3 (Tyr705) (3E2) Mouse mAb as a primary antibody, and anti-mouse IgG (HRP-linked) antibody as a secondary antibody.
(In general: A western blot detects proteins with antibodies after separation by electrophoresis.)

The conditions of series [6]: mouse, in vivo, iv.
Procedure: At 5 min, 30 min, 1 h, 2 h, 4 h, 8 h, 12 h, and 24 h post-injection, blood samples (0.5 mL) were drawn for serum protein concentration analysis. Next, the blood samples were placed at 4° C. overnight to allow the formation of a blood clot and centrifuged under 2,000×g for 15 min at 4° C. The serum samples were stored at −80° C. and analyzed using an ELISA kit. […] The AUC (area under the serum concentration-time curve) and AUMC (area under the first moment curve) were calculated using the trapezoidal rule.
Series [7] concerns TNF-α and IL-12 gene expression. The experiment in a line: qPCR of proinflammatory cytokines in LPS-stimulated macrophage cells. It counts as cell-based. Particulars: LPS 500 ng/mL 4 h, then IL-10 20 ng/mL 2 h. As for the experimental part: as §1

Take “lysozyme: lysozyme from chicken egg whites, model protein loaded into TNPs (1:20)”: in series [1], the Encapsulation efficiency is 90% and the Loading content was 1.8 wt %. For the same molecule, in series [2], the “Release profile from TNPs” value is given as “controlled-release kinetics up to a week”.

B1: recombinant mouse interleukin 10 (protein, UniProt P18893 19-178, looked up)
Interleukin-10: SRGQYSREDNNCTHFPVGQSHMLLELRTAFSQVKTFFQTKDQLDNILLTDSLMQDFKGYLGCQALSEMIQFYLVEVMPQAEKHGPEIKEHLNSLGEKLKTLRMRLRRCHRFLPCENKSKAVEQVKSDFNKLQDQGVYKAMNEFDIFINCIEAYMMIKMKS
notes: recombinant mouse interleukin 10, Mw ~36 kDa, from R&D Systems
As a reminder, the Vss is a proportionality between amount in the body and measured concentration, not a real space. Higher therefore signals wide distribution into tissue. For the molecule B1, in series [3] (IL-10 1-100 ng/mL, LPS 100 ng/mL, pre-treatment), the “Inhibitory effect on ROS production, dose response” value is “dose-dependent inhibition effect”. In series [4], the Ear swelling entry is given as “reduction of ear swelling compared to the saline-treated control”. In addition, in the series with sIL-1Ra gene expression, the “Increase of sIL-1Ra mRNA expression compared to LPS alone” value was 1.5 fold. In series [5], the “P-STAT3 (Tyr705) level” value is “clear band” and the “Total levels of STAT3” value is recorded as “slightly increased”. For the same molecule, in series [6], the Clearance came to 32.9928 mL/min/kg, the “Improvement of half-life versus IL-10 alone” value amounted to 5.9 fold, the T1/2 terminal stood at 15 min and the volume of distribution (Vss) is 0.70727 L/kg.

B2: released IL-10: IL-10 released from TNPs (obtained at 48 h post-release) (protein, UniProt P18893 19-178, looked up)
Interleukin-10: B1 Interleukin-10
modifications: released from nanoparticles
Take B2: in series [7], the “Reduction of TNF-α and IL-12 expression” value is “ca. 2.5 fold”. Further, the “Inhibitory effect on ROS production, pre-treatment (IL-10→LPS)” value in series [3] (50 ng/mL IL-10 24 h, then 100 ng/mL LPS 24 h) is “almost no statistical difference between the released IL-10 and native IL-10”. Also, the “Increase of sIL-1Ra mRNA expression compared to LPS alone” value with sIL-1Ra gene expression was “effects identical to those of the native protein”. In series [5], the “P-STAT3 (Tyr705) level” value is given as “almost identical” and the “Total levels of STAT3” value was “almost identical”.
